Results taken from patent publication US20110287512.

Experiments:
Assay in all cases: cell_activity
[1] = tested on: ZFN7263 (host, center linker TGSQKP) (synthetic); settings: yeast, partner ZFN7264; host on 0-bp gap = 1.00
[2] = tested on: ZFN7263 linker TGGGGSQKP (synthetic); settings: yeast, partner ZFN7264; host on 0-bp gap = 1.00
[3] = tested on: ZFN7263 linker TPLCQRPMKQKP (synthetic); settings: yeast, partner ZFN7264; host on 0-bp gap = 1.00
[4] = tested on: ZFN7263 linker TPNRCPPTKP (synthetic); settings: yeast, partner ZFN7264; host on 0-bp gap = 1.00
[5] = tested on: ZFN7263 linker TPRPPIPKP (synthetic); settings: yeast, partner ZFN7264; host on 0-bp gap = 1.00
[6] = tested on: ZFN7263 linker TQRPQIPPKP (synthetic); settings: yeast, partner ZFN7264; host on 0-bp gap = 1.00
[7] = tested on: ZFN7263 linker TYPRPLLAKP (synthetic); settings: yeast, partner ZFN7264; host on 0-bp gap = 1.00
[8] = tested on: ZFN7264 (host, center linker TGSQKP) (synthetic); settings: yeast, partner ZFN7263; host on 0-bp gap = 1.00; host data same as Table 9
[9] = tested on: ZFN7264 linker 1e (synthetic); settings: yeast, partner ZFN7263; host on 0-bp gap = 1.00
[10] = tested on: ZFN7264 linker TGGGGSQKP (synthetic); settings: yeast, partner ZFN7263; host on 0-bp gap = 1.00
[11] = tested on: ZFN7264 linker TGLPKPKP (synthetic); settings: yeast, partner ZFN7263; host on 0-bp gap = 1.00
[12] = tested on: ZFN7264 linker TSRPRPKP (synthetic); settings: yeast, partner ZFN7263; host on 0-bp gap = 1.00

Q: “ACTCTGATTGGAAG (double strand) [7263 yeast half-site gap AT]” was tested. Which activity (normalized MEL-1) [1] did it give?
A: Its activity (normalized MEL-1) is 0.02.

Q: What about the activity (normalized MEL-1) [2] of the same sequence?
A: Its activity (normalized MEL-1) is 0.02.

Q: And the activity (normalized MEL-1) [3]?
A: The activity (normalized MEL-1) was 0.01.

Q: And the activity (normalized MEL-1) [4]?
A: The activity (normalized MEL-1) was 0.03.

Q: And the activity (normalized MEL-1) [5]?
A: The activity (normalized MEL-1) was 0.03.

Q: And the activity (normalized MEL-1) [6]?
A: The activity (normalized MEL-1) was 0.02.

Q: What about the activity (normalized MEL-1) [7] of the same sequence?
A: Its activity (normalized MEL-1) is 0.05.

Q: What does the source list for “ACTCTGCTTGGAAG (double strand) [7263 yeast half-site gap CT]”?
A: activity (normalized MEL-1) [1]: 0.08; activity (normalized MEL-1) [2]: 0.04; activity (normalized MEL-1) [3]: 0.03; activity (normalized MEL-1) [4]: 0.06; activity (normalized MEL-1) [5]: 0.04; activity (normalized MEL-1) [6]: 0.03; activity (normalized MEL-1) [7]: 0.05

Q: With “AAAGCGTAGCTCCG (double strand) [7264 yeast half-site gap TA]” as the sequence, how does the activity (normalized MEL-1) [8] read?
A: The activity (normalized MEL-1) was 0.02.

Q: And the activity (normalized MEL-1) [9]?
A: The activity (normalized MEL-1) was 0.09.

Q: What about the activity (normalized MEL-1) [10] of the same sequence?
A: The activity (normalized MEL-1) was 0.09.

Q: What about the activity (normalized MEL-1) [11] of the same sequence?
A: The activity (normalized MEL-1) was 0.08.

Q: What about the activity (normalized MEL-1) [12] of the same sequence?
A: The activity (normalized MEL-1) was 0.07.

Q: With “AAAGCGCTGCTCCG (double strand) [7264 yeast half-site gap CT]” as the sequence, how does the activity (normalized MEL-1) [8] read?
A: The activity (normalized MEL-1) was 0.08.

Q: What about the activity (normalized MEL-1) [9] of the same sequence?
A: Its activity (normalized MEL-1) is 0.11.

Q: And the activity (normalized MEL-1) [10]?
A: The activity (normalized MEL-1) was 0.15.

Q: What about the activity (normalized MEL-1) [11] of the same sequence?
A: The activity (normalized MEL-1) was 0.09.

Q: And the activity (normalized MEL-1) [12]?
A: The activity (normalized MEL-1) was 0.1.
